In data set [1] the target is RhSA (Macaca mulatta, UniProt Q28522). The experiment in a line: Biacore kinetics of SABAs on immobilized serum albumin: RhSA. The class given is binding, rhesus. To be noted: for Kd: target RhSA.
Protocol: (§1) In addition, binding to albumin was carried out under various pH conditions ranging from pH 5.5 to pH 7.4.
The nature of data set [2]: Half-life of HSA and of SABA1-4 with or without HSA in mice (ELISA, WinNonlin). The class given is in vivo, Ncr nude female mice. Particulars: for PK (T½) Mice: co-injected with HSA (3-4 molar excess), tail vein; for half-life in mice plasma: injected without HSA; for increase in half life when co-injected with HSA: with HSA vs without HSA, mice. The procedure: The pharmacokinetic parameters of each Adnectin™ were determined using non-compartmental modeling with WinNonlin software.
For orientation: ELISA stands for enzyme-linked immunosorbent assay.

The target in data set [3] is HSA (Homo sapiens, UniProt P02768). To be noted: for Resistant to pH 7.4→5.5?: binding to HSA from pH 7.4 down to pH 5.5, symbols not defined.
Protocol: as §1
The nature of data set [4]: Pharmacokinetics of His-tagged FGF21 and SABA-FGF21 fusions in monkeys. To be noted: monkeys. Type of data set: in vivo, cynomolgus monkeys. The procedure: Various in vivo studies were conducted in mice and monkeys to characterize the pharmacokinetics of His-tagged FGF21 and SABA1-FGF21v1. An ELISA-based ligand binding assay was used to measure the His-tagged FGF21 and SABA1-FGF21v1 in all mouse and monkey plasma samples.
Following subcutaneous administration, His-tagged FGF21 was well absorbed.
Following subcutaneous administration, SABA1-FGF21v1 was well absorbed.

Data set [5] concerns the target MuSA (Mus musculus, UniProt P07724). Nature of the data set: Biacore kinetics of SABAs on immobilized serum albumin: MuSA. Type of data set: binding. For orientation: Surface plasmon resonance follows binding to a sensor surface in real time, without labels.
Data set [6] has as its target T1, Human serum albumin (Homo sapiens, UniProt P02768).
T1 construct: purchased Novozymes Recombumin
The experiment in a line: SPR (ProteOn XPR36) binding of SABA-neuropeptide fusions to Human Serum Albumin. Particulars: 25° C., average of two experiments. The procedure: Surface Plasmon Resonance (SPR) is a direct binding technique by which molecular interactions can be observed in real time. For these experiments, SPR binding studies were performed using a ProteOn XPR36 instrument (BioRad Laboratories). The running buffer, phosphate buffered saline 0.05% Tween 20 pH 7.4, was purchased from Teknova (cat #P1192) and all experiments were run at 25° C. Human serum albumin was directly immobilized on a BioRad GLC chip via amine coupling as per manufacturer's guidelines using amine coupling reagents purchased from BioRad Laboratories. Human serum albumin was purchased from Novozymes (Recombumin™). About 5000 resonance units (RU) of human serum albumin were immobilized onto 4 separate lanes of the GLC chip surface. For each analyte, five concentrations ranging from 15.6 nM to 250 nM were injected over the surface at 30 μl/min for 240 seconds. The dissociation was monitored for 600 seconds. The surface was regenerated with 100 mM HCl. The resultant data were fitted to a Langumuir 1:1 binding model using the ProteOn Manager Software. The experiment was repeated with a different concentration range. In this second experiment, 5 concentrations ranging from 500 nM to 32 nM were injected over the surfaces, and the data analyzed as above. The KD is the disassociation constant. Smaller numbers indicate tighter binding to serum albumin. Molecules covalently attached to SABA that bind to serum albumin display longer in vivo pharmokinetic half-lives, as described earlier with respect to SABA-FGF-21 fusions.

Data set [7] in a line: Analytical size exclusion chromatography (SEC) of SABAs. The class given is physicochemical. Particulars: midscaled material. The procedure:
Size exclusion chromatography (SEC) was performed on the SABAs resulting from the HTPP. SEC of HTPP derived material was performed using a Superdex 200 5/150 or Superdex 75 5/150 column (GE Healthcare) on an Agilent 1100 or 1200 HPLC system with UV detection at A214 nm and A280 nm and with fluorescence detection (excitation=280 nm, emission=350 nm). A buffer of 100 mM sodium sulfate, 100 mM sodium phosphate, 150 mM sodium chloride, pH 6.8 at appropriate flow rate of the SEC column employed. Gel filtration standards (Bio-Rad Laboratories, Hercules, Calif.) were used for molecular weight calibration.
Midscale expression and purification yielded highly pure and active Adnectins™ that were expressed in a soluble form and purified from the soluble fraction of the bacterial cytosol.
Standard size exclusion chromatography (SEC) was performed on the candidate SABAs resulting from the midscale process. SEC of midscaled material was performed using a Superdex 200 10/30 or on a Superdex 75 10/30 column (GE Healthcare) on an Agilent 1100 or 1200 HPLC system with UV detection at A214 nm and A280 nm and with fluorescence detection (excitation=280 nm, emission=350 nm). A buffer of 100 mM sodium sulfate, 100 mM sodium phosphate, 150 mM sodium chloride, pH 6.8 at appropriate flow rate of the SEC column employed. Gel filtration standards (Bio-Rad Laboratories, Hercules, Calif.) were used for molecular weight calibration.
(In gel filtration, larger molecules generally elute earlier.)

Where [8] appears, read: intravenous, His-tagged FGF21 0.5 mg/kg, SABA1-FGF21v1 0.08 mg/kg.

A value given as a limit tells only on which side of the number the result lay.

Broadly, the Kd is the equilibrium constant for the complex coming apart. A low value points to higher affinity.

Sequence of RhSA (Q28522 17-600): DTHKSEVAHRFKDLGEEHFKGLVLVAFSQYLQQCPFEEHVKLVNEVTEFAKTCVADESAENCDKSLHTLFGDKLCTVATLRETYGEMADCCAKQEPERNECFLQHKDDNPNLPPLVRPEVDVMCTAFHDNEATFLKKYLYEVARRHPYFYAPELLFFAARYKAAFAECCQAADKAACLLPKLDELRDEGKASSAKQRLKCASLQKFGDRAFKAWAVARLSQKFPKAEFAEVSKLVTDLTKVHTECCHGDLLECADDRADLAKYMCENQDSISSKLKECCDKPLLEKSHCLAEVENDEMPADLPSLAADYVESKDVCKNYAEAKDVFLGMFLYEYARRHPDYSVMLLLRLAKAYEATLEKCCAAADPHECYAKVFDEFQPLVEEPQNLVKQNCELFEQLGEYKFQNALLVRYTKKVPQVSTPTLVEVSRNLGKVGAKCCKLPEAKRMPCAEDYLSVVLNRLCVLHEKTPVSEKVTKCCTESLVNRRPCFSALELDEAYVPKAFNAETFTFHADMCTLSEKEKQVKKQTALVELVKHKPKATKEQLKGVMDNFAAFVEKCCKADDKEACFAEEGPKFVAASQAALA
Sequence of MuSA (P07724 25-608): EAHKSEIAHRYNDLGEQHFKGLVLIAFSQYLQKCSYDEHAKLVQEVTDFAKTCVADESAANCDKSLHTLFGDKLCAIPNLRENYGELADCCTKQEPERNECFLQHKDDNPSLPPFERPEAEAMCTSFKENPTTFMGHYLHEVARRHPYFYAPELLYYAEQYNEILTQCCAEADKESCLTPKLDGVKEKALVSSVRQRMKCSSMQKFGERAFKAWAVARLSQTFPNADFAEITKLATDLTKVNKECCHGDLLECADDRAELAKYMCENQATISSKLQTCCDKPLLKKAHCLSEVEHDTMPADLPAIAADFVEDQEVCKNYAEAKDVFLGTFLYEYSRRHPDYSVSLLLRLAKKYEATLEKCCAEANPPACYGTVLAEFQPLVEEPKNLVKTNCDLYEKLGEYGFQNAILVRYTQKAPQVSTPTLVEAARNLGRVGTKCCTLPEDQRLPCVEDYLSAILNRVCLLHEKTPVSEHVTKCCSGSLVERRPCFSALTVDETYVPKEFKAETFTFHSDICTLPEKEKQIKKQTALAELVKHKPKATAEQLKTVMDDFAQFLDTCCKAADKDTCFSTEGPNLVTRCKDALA

B1: SABA4: SABA core with a scaffold mutation; same BC, DE, FG loops as SABA5; in Table 5 stands for SABA4.1 (protein)
chain: EMVAATPTSLLISWEDDSYYSRYYRITYGETGGNSPVQEFTVPSDLYTATISGLKPGVDYTITVYAVTYDVTDLIMHEPISINYRT
With B1, the Kd is above 1000 nM in data set [1] and 412 nM in data set [3]. Further, the “PK (T½) Mice” value in data set [2] amounted to 4.6 h. The “Resistant to pH 7.4→5.5?” value in data set [3] is recorded as “pH sensitive”.

B2: FGF21-SABA1v1: fusion in which the SABA moiety is at the C-terminus of FGF21, SEQ ID NO: 171; 300 aa; DNA SEQ ID NO: 180 (protein)
chain: MPIPDSSPLLQFGGQVRQRYLYTDDAQQTEAHLEIREDGTVGGAADQSPESLLQLKALKPGVIQILGVKTSRFLCQRPDGALYGSLHFDPEACSFRELLLEDGYNVYQSEAHGLPLHLPGNKSPHRDPAPRGPARFLPLPGLPPALPEPPGILAPQPPDVGSSDPLSMVGPSQGRSPSYASGGSGSGSGSGSGSGSGVSDVPRDLEVVAATPTSLLISWHSYYEQNSYYRITYGETGGNSPVQEFTVPYSQTTATISGLKPGVDYTITVYAVYGSKYYYPISINYRTEIDKPSQHHHHHH
As for B2, in data set [4], the “increase of t1/2 compared to His-tagged FGF21” value is on record as around 27 fold. Further, in data set [4] (setting [8]), the “CL (total body plasma clearance, CLTp)” value came out at 1.2 mL/h/kg; the “T½ (terminal half-life)” value is 50.3 h; the “Vdss (steady-state volume of distribution, Vss)” value amounted to 0.06 L/kg.

B3: SABA4.1: HSA binding clone of SABA4 (protein)
chain: MGVSDVPRDLEMVAATPTSLLISWEDDSYYSRYYRITYGETGGNSPVQEFTVPSDLYTATISGLKPGVDYTITVYAVTYDVTDLIMHEPISINYRTEIDKPSQHHHHHH
modifications: His6 tag
Take B3: in data set [1], the “Comments: binding affinity for RhSA” value was “Poor binding affinity for RhSA” and the “cross reaction with RhSA” value was “cross reacted”. Also, in data set [5], the “cross reaction with MuSA” value was “did not cross react”. Further, in data set [2], the “PK (T½) Mice” value came out at 4.6 h, the “half-life in mice plasma” value worked out at 39.6 min and the “increase in half life when co-injected with HSA” value is reported as around 7 fold. For the same molecule, in data set [3] (pH <6.0), the “Comments: decrease in KD observed at pH <6.0” value was >2-fold decrease in KD observed at.

B4: SABA1: serum albumin binding 10Fn3 core sequence, SEQ ID NO: 4; in Table 5 stands for SABA1.1 (protein)
chain: EVVAATPTSLLISWHSYYEQNSYYRITYGETGGNSPVQEFTVPYSQTTATISGLKPGVDYTITVYAVYGSKYYYPISINYRT
B4: the dissociation constant (Kd) in data set [1] came to 778 nM; in data set [3], 47.2 nM.

B5: SABA1-APPv7: SEQ ID NO: 364; SABA1.7-(ED)5G-Cys conjugated to Maleimide-PEG20-PP-CONH2 (conjugate)
chain: MGVSDVPRDLEVVAATPTSLLISWHSYYEQNSYYRITYGETGGNSPVQEFTVPYSQTTATISGLKPGVDYTITVYAVYGSKYYYPISINYRTEIEDEDEDEDEDGC
modifications: Maleimide-PEG20-PP-CONH2 conjugated via Cys
Regarding B5, in data set [6], the “Koff (1/s)” value is reported as 1.42 10^−4 1/s and the “Kon (1/Ms)” value is reported as 7.88 10^3 1/Ms.

B6: SABA1-PYYv7: SEQ ID NO: 344; SABA1.7-(ED)5G-Cys conjugated to Maleimide-PEG20-PYY-CONH2 (conjugate)
chain: B5 chain
modifications: Maleimide-PEG20-PYY-CONH2 conjugated via Cys
B6: in data set [6], the “Koff (1/s)” value is recorded as 2.08 10^−4 1/s and the “Kon (1/Ms)” value is reported as 9.29 10^3 1/Ms.

B7: SABA2: SABA core sequence from PROfusion; in Table 5 stands for SABA2.1 (protein)
chain: EVVAATPTSLLISWPKYDKTGHYYRITYGETGGNSPVQEFTVPTRQTTATISGLKPGVDYTITVYAVSKDDYYPHEHRPISINYRT
With B7, the Kd turned out to be 63.6 nM in data set [1] and 33.8 nM in data set [3]. Further, in data set [3], the “Resistant to pH 7.4→5.5?” value is on record as “pH sensitive”.

B8: SABA2.1: His-tagged SABA2 sequence (protein)
chain: MGVSDVPRDLEVVAATPTSLLISWPKYDKTGHYYRITYGETGGNSPVQEFTVPTRQTTATISGLKPGVDYTITVYAVSKDDYYPHEHRPISINYRTEIDKPSQHHHHHH
modifications: His6 tag
In the case of B8, in data set [7], the “SEC Dimer (%)” value is 9% and the “SEC Monomer (%)” value is listed as 91%. In addition, in data set [1], the “cross reaction with RhSA” value was “cross reacted”. Further, the “cross reaction with MuSA” value in data set [5] is “did not cross react”. Further, in data set [2], the “PK (T½) Mice” value came to 2.8 h, the “half-life in mice plasma” value is 14.4 min and the “increase in half life when co-injected with HSA” value was around 12 fold. Besides, the “Comments: binding in dependence of pH” value in data set [3] is “Loss of binding at pH ≦6.5”.

B9: SABA3: SABA core sequence from PROfusion; in Table 5 stands for SABA3.1 (protein)
chain: EVVAATPTSLLISWSNDGPGLSYYRITYGETGGNSPVQEFTVPSSQTTATISGLKPGVDYTITVYAVSYYTKKAYSAGPISINYRT
On to B9, for which the Kd in data set [1] is 431 nM. Moreover, in data set [3], the Kd was 863 nM and the “Resistant to pH 7.4→5.5?” value was “pH resistant binding to HSA down to pH 6.0”.
